In publication PMC7924340 (Toxins, 2021) one finds IC50 data, which are given here for two molecules.

Assay [1] addresses Acetylcholine binding protein from Aplysia californica (Aplysia californica). The assay is described as follows: radioligand binding.
Assay [2] concerns the target T1, Acetylcholine binding protein from Lymnaea stagnalis (Lymnaea stagnalis, UniProt P58154 20-229).
T1 construct: also called AChBP L. stagnalis; L. stagnalis AChBP
The assay is described as follows: radioligand binding. The note with it: both partners purified.

As for “α-Cobratoxin from cobra Naja kaouthia venom (from UniProt P01391 1-71) (natural protein)”, in assay [1], the IC50 is 385 nM.

B1: α-Cobratoxin from cobra Naja kaouthia venom (natural protein)
chain: IRCFITPDITSKDCPNGHVCYTKTWCDAFCSIRGKRVDLGCAATCPTVKTGVDIQCCSTDNCNPFPTRKRP
For the molecule B1, the IC50 in assay [2] was found to be 25.4 ± 0.8 nM.

As a reminder, the IC50 is the concentration that inhibits the measured activity by half. A low value points to greater potency.
